{"source": "patent US20240108651A1", "about": "(THOMAS JEFFERSON UNIVERSITY, published 2024)", "target": "T1, human desmoglein 2 (Dsg2) on cells (human, UniProt Q14126 50-1118)", "T1 construct": "whole, on cells; also called huma Dsg2; hDsg2", "T1 sequence (looked up)": "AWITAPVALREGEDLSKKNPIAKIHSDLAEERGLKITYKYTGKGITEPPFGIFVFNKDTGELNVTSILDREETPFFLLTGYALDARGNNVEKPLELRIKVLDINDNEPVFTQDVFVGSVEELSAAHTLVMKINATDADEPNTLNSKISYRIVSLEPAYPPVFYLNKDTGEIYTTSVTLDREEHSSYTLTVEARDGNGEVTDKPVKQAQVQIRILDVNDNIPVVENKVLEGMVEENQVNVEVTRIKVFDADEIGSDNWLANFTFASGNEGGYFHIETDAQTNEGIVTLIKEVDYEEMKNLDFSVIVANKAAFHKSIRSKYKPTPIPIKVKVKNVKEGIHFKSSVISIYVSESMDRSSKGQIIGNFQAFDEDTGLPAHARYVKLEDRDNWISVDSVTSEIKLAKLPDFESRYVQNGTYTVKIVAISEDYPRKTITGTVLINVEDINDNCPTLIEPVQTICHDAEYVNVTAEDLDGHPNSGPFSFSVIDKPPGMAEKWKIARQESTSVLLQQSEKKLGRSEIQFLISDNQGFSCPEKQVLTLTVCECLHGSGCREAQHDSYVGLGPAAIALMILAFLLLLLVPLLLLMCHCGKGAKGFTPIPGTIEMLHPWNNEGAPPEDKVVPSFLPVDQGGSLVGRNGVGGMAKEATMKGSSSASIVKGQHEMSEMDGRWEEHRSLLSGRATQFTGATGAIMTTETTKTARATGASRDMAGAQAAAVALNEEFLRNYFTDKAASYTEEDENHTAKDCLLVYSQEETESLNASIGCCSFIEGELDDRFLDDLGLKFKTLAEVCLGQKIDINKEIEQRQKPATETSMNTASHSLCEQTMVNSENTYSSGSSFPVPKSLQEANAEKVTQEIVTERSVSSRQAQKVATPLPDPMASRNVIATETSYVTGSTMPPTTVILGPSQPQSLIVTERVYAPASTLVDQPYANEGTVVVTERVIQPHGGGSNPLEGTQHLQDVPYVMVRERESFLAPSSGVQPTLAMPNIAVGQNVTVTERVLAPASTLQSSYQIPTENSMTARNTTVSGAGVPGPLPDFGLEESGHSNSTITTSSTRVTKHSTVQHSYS", "assay": "legend of FIG. 5: Dsg2 domain scheme; immunoblot and immunostaining of A431 SCC cells", "from_the_text": "P, Pro-region; EC, Extracellular Domain; TM, Transmembrane; IA, Intracellular Anchoring, ICS, Intracellular Cadherin Segment; LD, Linker Domain; RUD, Repeat Unit Domain; TD, Terminal Domain. 10D2 recognizes EC1 while 6D8 recognizes EC4. For FIG. 5B and FIG. 5C, A431 SCC was immunoblotted (FIG. 5B) or immunostained (FIG. 5C) with mAbs 6D8 and 10D2."}
{"binder": "mAb 10D2 (antibody, V domains shown, Monoclonal antibody from a hybridoma; also called 10D2 Antibody; 10D2 mAb) VH: EVQLQQSGPELVNPGASVKMSCKASGYSFTSYILHWVKQKPGQGLEWIGYINPYNDATKYNEKFKGKATLTSDKSSSTAYMELSSVTSEDSAVYYCCSMITTAYWAYWGQGTLVTVSA VL: NIMMTQSPSSLTVSAGEKVTMSCKSSQSILYGSTQKNYLAWYQQKPGQSPKLLIYWASTRESGVPDRFTGSGSGTDFTLTISSVQAEDLAVYYCHQYLSSYTFGGGTKLEIK", "values": [{"measurement": "binding result", "value": "binds"}]}
{"binder": "mAb 6D8 (antibody, V domains shown, Monoclonal antibody from a hybridoma; also called 6D8 Antibody; 6D8 mAb) VH: QIQLVQSGPELKKPGETVKISCKASGYTFTNYGMNWVKQAPGRGLKWMGWINTYTGNPTYADDFKGRFDFSLETSASTAYLQINNLKNEDMAIYFCARDRGNSFDYWGQGTTLTVSS VL: DIQMTQSPASLSVSVGETVTITCRASENIYSNLAWYQQKQGKSPQLLVYIAINLADGVPSRFSGSGSGTQYSLKINSLQSEDFGNYYCQHFWGTPRTFGGGTKLEIK", "values": [{"measurement": "binding result", "value": "binds"}]}
